Data: patent US20070111944A1 (published 2007)

Assays:
[1] = molecular target: chimeric receptor consisting of the extracellular and transmembrane domain of VEGFR1 fused to the cytoplasmic domain of gp130 (UniProt P17948); assay: cell-based or functional assay
[2] = molecular target: T1, VEGF-R2/Fc (human, UniProt P35968 20-764); assay: SPR (Biacore 2000), VEGF-B167 immobilised, receptor-Fc injected
T1 construct: Bought from R&D Systems; also called VEGF receptor 2; not shown: human immunoglobulin Fc domain
Method: For control purposes binding of the receptors to VEGF-A₁₆₅ was also monitored. Both VEGF-B₁₆₇ and VEGF-A₁₆₅ were individually immobilised to a sensorchip using NHS/EDC chemistry according to the manufacturer's instructions. Briefly, 35 μl of NHS and EDC was injected onto the sensorchip at a flow rate of 5 μl/min to activate the sensor surface and enable covalent coupling of either VEGF-A₁₆₅ or VEGF-B₁₆₇. […] Post coupling, diaminoethane (50 mM, pH 9.0) was used to block any unbound activated sites on the sensor surface. Concentrated dimeric VEGF-B₁₆₇ (200 μg/ml) was diluted (1:10) in 20 mM sodium acetate and immobilized onto a separate channel on the sensorchip. Post coupling, diaminoethane (50 mM, pH 9.0) was used to block any unbound activated sites on the sensor surface.
At the end of each run, the surface of the sensorchip was regenerated using 2 cycles of phosphoric acid (0.1 M, 30 μl) at a flow of 50 μl/min. […] Both were diluted into 0.1% w/v BSA in PBS as a stock solution (50 μg/ml, storage −20° C.).

[3] = molecular target: T2, VEGF-R1/Fc (human, UniProt P17948-2 27-758, limits assumed); assay: competition ELISA on captured VEGF-R1/Fc; competitor VEGF-A165 at 10 ng/ml, detected with biotinylated anti-VEGF-A165; VEGF-A165 at 10 ng/ml; VEGF-R1/Fc captured on plate
T2 construct: Bought from R&D Systems; also called VEGF receptor 1; Flt-1; not shown: human immunoglobulin Fc domain
Method: 1. […] 2. […] 6. […] 7. Biotinylated anti-VEGF-A₁₆₅ (10 ng/ml in Buffer 20, 100 μl) was added and incubated for 1 hr. […] 8. […] 9. […] 10. […] 11.

Sequence of chimeric receptor consisting of the extracellular and transmembrane domain of VEGFR1 fused to the cytoplasmic domain of gp130 (P17948 other isoform, or with tags, fused parts or gaps mutant limits assumed): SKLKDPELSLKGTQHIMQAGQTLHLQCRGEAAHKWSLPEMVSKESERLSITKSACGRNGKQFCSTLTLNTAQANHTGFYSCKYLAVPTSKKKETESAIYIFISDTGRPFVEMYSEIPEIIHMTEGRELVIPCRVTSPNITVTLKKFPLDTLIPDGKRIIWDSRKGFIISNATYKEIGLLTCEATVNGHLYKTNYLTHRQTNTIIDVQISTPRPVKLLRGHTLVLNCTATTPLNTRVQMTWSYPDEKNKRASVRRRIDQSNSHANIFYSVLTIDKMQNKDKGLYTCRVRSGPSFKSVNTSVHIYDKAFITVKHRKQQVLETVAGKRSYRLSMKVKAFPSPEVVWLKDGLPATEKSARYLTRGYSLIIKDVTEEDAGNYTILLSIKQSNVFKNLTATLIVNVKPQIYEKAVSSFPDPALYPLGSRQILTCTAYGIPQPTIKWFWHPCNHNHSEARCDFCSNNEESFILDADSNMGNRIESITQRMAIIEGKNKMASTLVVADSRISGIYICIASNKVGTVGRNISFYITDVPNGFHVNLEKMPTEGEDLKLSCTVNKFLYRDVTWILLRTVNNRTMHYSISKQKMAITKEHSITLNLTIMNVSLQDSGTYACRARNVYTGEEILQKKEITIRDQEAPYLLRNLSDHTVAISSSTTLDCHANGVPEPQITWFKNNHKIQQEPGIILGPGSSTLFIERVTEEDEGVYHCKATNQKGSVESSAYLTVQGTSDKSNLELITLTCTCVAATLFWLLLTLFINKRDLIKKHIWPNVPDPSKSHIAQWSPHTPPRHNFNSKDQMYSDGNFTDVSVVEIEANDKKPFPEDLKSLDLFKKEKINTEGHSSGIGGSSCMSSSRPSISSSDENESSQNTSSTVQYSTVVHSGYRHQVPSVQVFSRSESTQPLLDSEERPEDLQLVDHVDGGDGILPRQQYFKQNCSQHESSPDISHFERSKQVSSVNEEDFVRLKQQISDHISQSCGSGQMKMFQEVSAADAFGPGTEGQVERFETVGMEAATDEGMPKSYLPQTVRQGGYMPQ
T2 sequence (P17948 27-758 limits assumed, form in doubt): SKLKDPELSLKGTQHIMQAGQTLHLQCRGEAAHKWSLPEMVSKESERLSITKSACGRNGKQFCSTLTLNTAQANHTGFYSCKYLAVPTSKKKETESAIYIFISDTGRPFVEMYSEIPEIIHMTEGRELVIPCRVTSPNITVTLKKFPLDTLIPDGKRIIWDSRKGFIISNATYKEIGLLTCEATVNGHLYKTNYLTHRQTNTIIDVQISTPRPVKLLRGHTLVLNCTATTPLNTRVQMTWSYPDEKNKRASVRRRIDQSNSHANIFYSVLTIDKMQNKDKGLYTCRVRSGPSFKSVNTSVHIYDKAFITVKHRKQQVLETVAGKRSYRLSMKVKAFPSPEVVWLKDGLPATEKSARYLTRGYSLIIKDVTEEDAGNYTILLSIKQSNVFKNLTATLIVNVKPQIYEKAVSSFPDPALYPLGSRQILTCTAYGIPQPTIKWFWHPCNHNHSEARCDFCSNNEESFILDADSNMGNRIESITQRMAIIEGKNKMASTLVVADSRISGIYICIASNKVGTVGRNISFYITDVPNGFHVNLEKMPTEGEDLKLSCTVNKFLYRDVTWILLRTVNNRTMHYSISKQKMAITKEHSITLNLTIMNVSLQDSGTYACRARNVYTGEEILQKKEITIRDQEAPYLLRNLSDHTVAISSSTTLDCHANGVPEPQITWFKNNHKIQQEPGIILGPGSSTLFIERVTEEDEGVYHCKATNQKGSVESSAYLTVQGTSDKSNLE
T1 sequence (P35968 20-764 limits assumed): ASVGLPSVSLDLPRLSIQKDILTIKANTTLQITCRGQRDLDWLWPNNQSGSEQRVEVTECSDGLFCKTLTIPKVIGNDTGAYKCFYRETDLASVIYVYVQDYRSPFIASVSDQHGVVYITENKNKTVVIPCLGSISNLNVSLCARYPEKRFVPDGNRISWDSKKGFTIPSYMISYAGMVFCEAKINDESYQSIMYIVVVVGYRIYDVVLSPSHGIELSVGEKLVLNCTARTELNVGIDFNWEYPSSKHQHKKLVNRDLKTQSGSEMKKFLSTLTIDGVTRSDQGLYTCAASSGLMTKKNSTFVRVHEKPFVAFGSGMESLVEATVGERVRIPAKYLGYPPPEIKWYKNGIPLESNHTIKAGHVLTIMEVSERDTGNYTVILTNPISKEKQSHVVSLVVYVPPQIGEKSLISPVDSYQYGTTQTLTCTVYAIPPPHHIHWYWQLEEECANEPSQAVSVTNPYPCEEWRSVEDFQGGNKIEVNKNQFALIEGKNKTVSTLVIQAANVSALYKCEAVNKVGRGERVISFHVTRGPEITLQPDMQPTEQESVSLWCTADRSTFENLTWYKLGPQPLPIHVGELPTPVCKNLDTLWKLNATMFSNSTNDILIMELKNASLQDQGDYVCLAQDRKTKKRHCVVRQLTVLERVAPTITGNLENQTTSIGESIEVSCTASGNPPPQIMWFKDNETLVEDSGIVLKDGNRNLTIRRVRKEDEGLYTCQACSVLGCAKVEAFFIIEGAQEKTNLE

| luciferase reporter activity (ED50) [1] [µg/mL] | IC50 [3] [µg/mL] | Molecule | binding result [2] |
| --- | --- | --- | --- |
| 0.01 to 0.05 | – | VEGF-A (from UniProt P15692 27-191) (ligand) | – |
| – | ~0.02 | refolded dimeric VEGF-B167 (ligand, also called purified dimeric VEGF-B167) APVSQPDAPGHQRKVVSWIDVYTRATCQPREVVVPLTVELMGTVAKQLVPSCVTVQRCGGCCPDDGLECVPTGQHQVRMQILMIRYPSSQLGEMSLEEHSQCECRPKKKDSAVKPDSPRPLCPRCTQHHQRPDPRTCRCRCRRRSFLRCQGRGLELNPDTCRCRKLRR | no binding (tested: 50 µg/ml stock diluted 1:10) |
